Numbering of substitutions follows the chain as printed.
T1: full-length human TIGIT on CHO-K1 cells (CHO-K1 human TIGIT) (human, UniProt Q495A1 22-244)
T1 construct: NCBI XP_024309156.1; entry includes the signal peptide; also called high expression strain 1D2; medium expression strain 2D10
T1 sequence: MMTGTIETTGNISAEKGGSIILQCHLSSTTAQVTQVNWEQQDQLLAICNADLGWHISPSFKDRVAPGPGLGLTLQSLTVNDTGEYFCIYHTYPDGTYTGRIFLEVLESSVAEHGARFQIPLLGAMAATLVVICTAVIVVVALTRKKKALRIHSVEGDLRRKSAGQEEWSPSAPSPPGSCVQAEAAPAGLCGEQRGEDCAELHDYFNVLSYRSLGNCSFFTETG

T2: human TIGIT ECD-his (fusion protein of extracellular domain of human TIGIT and His-tag) (human)
T2 construct: entry includes the signal peptide, limits not readable here
T2 chain: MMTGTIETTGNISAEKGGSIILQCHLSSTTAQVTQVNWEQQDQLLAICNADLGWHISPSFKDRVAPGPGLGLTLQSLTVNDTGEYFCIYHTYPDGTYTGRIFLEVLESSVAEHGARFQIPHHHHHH

B1: TIGIT-F2-005 (antibody, V domains shown)
VH: QVQLQQSGAELVRPGTSVKVSCKASGYAFTNYLIEWVKQRPGQGLEWIGVINPGSGGTNYKEKFKGKATLTADKSSSTAYMQLSSLTSEDSAVYFCARGEYFFFDYWGQGTTLTVSS
VL: DIVMTQSHKFMSTSVGDRVSITCKASQHVSNGVAWYQHKPGQSPKLLIYSASYRYTGVPDRFTGTGSGTDFTFTISSVQAEDLAVYYCQQHYNTPHTFGGGTKLEIK
notes: mouse hybridoma antibody; variable domains as printed for TIGIT-CHI-005; tie rests on the number 005 only; also called mouse antibody TIGIT-005
B2: TIGIT-F5-070 (antibody, V domains shown)
VH: QVQLQQPGTELVKPGASVKLSCRASGYTFTNYYMHWVKQRPGRGLEWIGRIDPDSGGSKYNEKFKSKATLTVDKLSSTAYMQLSSLTSEDSAVYYCAREGHYGFYSDYWGQGTTLTVSS
VL: DIQMTQSPASLSASVGETVTITCRVSENIYSYLAWYQQKQGKSPQLLVYNAKTLAEGVPSRFSGSGSGTQFSLKINSLQPEDFGNYYCQHHYGNPLTFGAGTKLDLK
notes: mouse hybridoma antibody; variable domains as printed for TIGIT-CHI-070; tie rests on the number 070 only; also called mouse antibody TIGIT-070
B3: RG6058-mIgG2a (antibody, V domains shown)
VH: EVQLQQSGPGLVKPSQTLSLTCAISGDSVSSNSAAWNWIRQSPSRGLEWLGKTYYRFKWYSDYAVSVKGRITINPDTSKNQFSLQLNSVTPEDTAVFYCTRESTTYDLLAGPFDYWGQGTLVTVSS
VL: not shown
notes: mouse IgG2a format by its name; also called Roche RG6058; control antibody RG6058
B4: TIGIT-F2-002 (antibody, V domains shown)
VH: EVQLQESGPGLAKPSQTLSLACSVTGYSITSDSWNWIRKFPGNKLEYMGYISYSGNTYYNPSLKSRISITRDTSKNQFYLQLNSVTTEDTATYYCARLDFSNYGGAVDYWGQGTSVTVSS
VL: DIVMTQSHTFMSTSVGDRVSITCKASQNVRTAVAWYQQKPGQSPKLMIYSASYRYTGVPDRFTGSGSGTDFTFTISSVQAEDLAVYYCQQYYTTPWTFGGGAKLEIQ
notes: mouse hybridoma antibody; variable domains are those printed for the chimeric TIGIT-CHI-002 built from the mouse antibody; tie rests on the number 002 only; also called mouse antibody TIGIT-002
B5: TIGIT-F2-006 (antibody, V domains shown)
VH: B4 VH with L18P, A21T, I29M, S33Y, N56R, L98G, F100Y, V107M, D108Y, Y109D
VL: DIVMTQSHKFMSTSVGDRVSITCRASQGVSTTIAWYQQKPGQSPKLLIYSASYRYTGVPDRFTGSGSGTDFTFTISGVQAEDLAVYYCQQYYSSPFTFGGGTKLEIK
notes: mouse hybridoma antibody; variable domains as printed for TIGIT-CHI-006; tie rests on the number 006 only; also called mouse antibody TIGIT-006

What follows are binders tested against T1, full-length human TIGIT on CHO-K1 cells … (assay: FACS, competition: Bio-CD155-His to CHO-K1 human TIGIT).
Protocol: The collected cells were washed once with PBS (Hyclone, CAT #SH30256), resuspended to 2×10⁵/40 μL with 1% BSA-PBS. The antibodies were diluted to 210 nM with 1% BSA-PBS (diluted by 3-fold serial dilution for 12 concentration points). […] The 40 μL cells were then mixed with 40 μL diluted antibodies and 40 μL diluted Bio-CD155-His, and then incubated at 4° C. for 60 minutes. The cells were washed twice with PBS, resuspended with APC labeled streptavidin (dilution ratio 1:1700, Biolegend, 405243), 100 μL/well, and incubated at 4° C. for 40 minutes. The cell samples were washed twice with PBS, resuspended with 1% BSA-PBS, 100 μL/well and then analyzed by flow cytometry (BD, Canto II). […] (d) The effect of anti-TIGIT mouse monoclonal antibodies blocking the interaction between human TIGIT and CHO-K1 CD155 detected by ELISA

Q: B1 was tested. Which IC50 did it give?
A: 0.174 nM

Q: Which IC50 does the source give for B2 here?
A: 0.34 nM

Q: How did the IC50 turn out when B3 was run?
A: 0.449 nM

Q: How did the IC50 turn out when B4 was run?
A: 0.204 nM

Q: With B5 as the binder, how does the IC50 read?
A: 0.215 nM

These binders were tested against T1, full-length human TIGIT on CHO-K1 cells … (assay: cell ELISA, low expression strain).
Protocol: (§1) After discarding the culture supernatant, the cells were fixed with a cell fixation solution (Beyotime, CAT #P0098), 50 μL/well, at room temperature for 1 hour. After washing once with 0.05% Tween 20-PBS on the Microplate Washer, the plate was added with 5% skim milk powder-PBS, 250 μL/well, and incubated at 37° C. for 2-4 hours. After washing 3 times with 0.05% Tween 20-PBS on the Microplate Washer, the plate was added with purified mouse monoclonal antibodies (diluted to 13 nM with 1% BSA, diluted by 3 fold serial dilution for 12 concentration points), 50 µL/well, incubated at 37° C. for 1.5-2 hours. […] After washing 3 times with 0.05% Tween 20-PBS on the Microplate Washer, the plate was added with TMB chromogenic solution (KPL, CAT #52-00-03), 50 μL/well, and incubated at 37° C. for 10 minutes. 1M HCL, 50 μL/well, was then added into the plate to terminate the reaction, and the OD450 nm was read by a microplate reader (Biotek, Powerwave HT). […] (c) The effect of anti-TIGIT mouse monoclonal antibodies blocking the interaction between Bio-CD155-His and CHO-K1 human TIGIT detected by FACS

Q: For B1, which EC50 is on record?
A: 0.231 nM

Q: Which EC50 does the source give for B2 here?
A: 0.375 nM

Q: With B3 as the binder, how does the EC50 read?
A: 0.672 nM

Q: B4 was tested. Which EC50 did it give?
A: 0.273 nM

Q: For B5, which EC50 is on record?
A: 0.32 nM

These binders were tested against T3, human TIGIT ECD-hFc (fusion protein of extracellular domain of human TIGIT and human IgG1 Fc fragment) (human) (assay: cell ELISA, competition: hTIGIT ECD-hFc to CHO-K1 CD155).
T3 construct: entry includes the signal peptide, limits not readable here
Protocol: After discarding the culture supernatant, the cells were fixed with a cell fixation solution (Beyotime, CAT #P0098), 50 μL/well, at room temperature for 1 hour. After washing once with 0.05% Tween 20-PBS on the Microplate Washer, the plate was added with 5% skim milk powder-PBS, 250 μL/well, and incubated at 37° C. for 2-4 hours. The plate was then washed 3 times with 0.05% Tween 20-PBS on the Microplate Washer. The mouse monoclonal antibodies were mixed with human TIGIT ECD-hFc (working concentration: 30 ng/mL) and incubated for 0.5 hour. The mixed solution of antigen and antibody was added to the cell plate (50 μL/well). The cells were incubated at 37° C. for 1.5-2 hours and then washed with 0.05% Tween 20-PBS for 3 times on the Microplate Washer. The cell plate was then added with 50 μL/well HRP enzyme-labeled antibodies (Merck, CAT #AP113P) diluted with 1% BSA (Sangon Biotech, CAT #A500023-0100)-PBS at a dilution ratio of 1:5000 and incubated at 37° C. for 1 hour. After washing 3 times with 0.05% Tween 20-PBS on the Microplate Washer, the plate was added with TMB chromogenic solution (KPL, CAT #52-00-03), 50 μL/well, and incubated at 37° C. for 10 minutes. 1M HCL, 50 μL/well, was then added into the plate to terminate the reaction, and the OD450 nm was read by a microplate reader (Biotek, Powerwave HT).

Q: B1 was tested. Which IC50 did it give?
A: 0.133 nM

Q: Which IC50 does the source give for B2 here?
A: 0.136 nM

Q: For B3, which IC50 is on record?
A: 0.212 nM

Q: How did the IC50 turn out when B4 was run?
A: 0.141 nM

Q: B5 was tested. Which IC50 did it give?
A: 0.15 nM

These binders were tested against T4, cynomolgus monkey TIGIT ECD-hFc (extracellular domain of cynomolgus monkey TIGIT and human IgG1 Fc fragment) (cynomolgus monkey) (assay: ELISA).
T4 construct: entry includes the signal peptide, limits not readable here; also called cynomolgus monkey TIGIT-hFc

Q: How did the EC50 turn out when B1 was run?
A: 0.0147 nM

Q: How did the EC50 turn out when B2 was run?
A: 0.0043 nM

Q: Which EC50 does the source give for B3 here?
A: 0.0152 nM

Q: For B4, which EC50 is on record?
A: 0.017 nM

Q: How did the EC50 turn out when B5 was run?
A: 0.0327 nM

Each binder was assayed against T3, human TIGIT ECD-hFc (fusion protein of …) (assay: ELISA).

Q: B1 was tested. Which EC50 did it give?
A: 0.015 nM

Q: For B2, which EC50 is on record?
A: 0.0039 nM

Q: Which EC50 does the source give for B3 here?
A: 0.0108 nM

Q: With B4 as the binder, how does the EC50 read?
A: 0.0171 nM

Q: With B5 as the binder, how does the EC50 read?
A: 0.0208 nM

Target: T2, human TIGIT ECD-his (fusion protein of …)
Assay: BIAcore kinetics

Q: What does the source list for B1?
A: Kd: 0.0333 nM; koff: 4.47e-05 s⁻¹; kon: 1.34e+06 M⁻¹ s⁻¹

Q: How did the Kd turn out when B2 was run?
A: 0.155 nM

Q: What about the koff of the same binder?
A: 0.000117 s⁻¹

Q: And the kon?
A: 755000 M⁻¹ s⁻¹

Q: For B3, which Kd is on record?
A: 0.211 nM

Q: And the koff?
A: 0.000141 s⁻¹

Q: And the kon?
A: 669000 M⁻¹ s⁻¹

Q: Which results are given for B4?
A: Kd: 0.0476 nM; koff: 8.08e-05 s⁻¹; kon: 1.7e+06 M⁻¹ s⁻¹

Q: Which Kd does the source give for B5 here?
A: 0.0414 nM

Q: What about the koff of the same binder?
A: 3.32e-05 s⁻¹

Q: And the kon?
A: 800000 M⁻¹ s⁻¹

What follows are binders tested against T5, full-length cynomolgus monkey TIGIT on CHO-K1 cells (CHO-K1 cynomolgus monkey TIGIT) (cynomolgus monkey) (assay: cell ELISA).
T5 construct: NCBI XP_015300911.1; also called cynomolgus monkey TIGIT cells
Protocol: as §1

Q: For B1, which EC50 is on record?
A: 0.0778 nM

Q: With B2 as the binder, how does the EC50 read?
A: 0.0274 nM

Q: With B3 as the binder, how does the EC50 read?
A: 0.0791 nM

Q: With B4 as the binder, how does the EC50 read?
A: 0.11 nM

Q: Which EC50 does the source give for B5 here?
A: 0.0616 nM

The binders below were run against T1, full-length human TIGIT on CHO-K1 cells … (assay: cell ELISA, high expression strain).
Protocol: as §1

Q: With B1 as the binder, how does the EC50 read?
A: 0.388 nM

Q: For B2, which EC50 is on record?
A: 0.613 nM

Q: With B3 as the binder, how does the EC50 read?
A: 1.05 nM

Q: How did the EC50 turn out when B4 was run?
A: 0.312 nM

Q: B5 was tested. Which EC50 did it give?
A: 0.48 nM

What follows are binders tested against T1, full-length human TIGIT on CHO-K1 cells … (assay: cell ELISA, medium expression strain).
Protocol: as §1

Q: How did the EC50 turn out when B1 was run?
A: 0.386 nM

Q: With B2 as the binder, how does the EC50 read?
A: 0.664 nM

Q: With B3 as the binder, how does the EC50 read?
A: 0.984 nM

Q: B4 was tested. Which EC50 did it give?
A: 0.316 nM

Q: Which EC50 does the source give for B5 here?
A: 0.54 nM
